# Measured values from patent US20140274782A1, “AFFINITY REAGENTS AND METHODS FOR DETECTION, PURIFICATION, AND PROTEOMIC ANALYSIS OF METHYLATED PROTEINS” (The Board of Trustees of the Leland Stanford Junior …, priority 2013, published 2014).
# Key:
# G9a and GLP = molecular target: T1, G9a and GLP (Homo sapiens, UniProt Q96KQ7+Q9H9B1); assay: Triple SILAC pull-down after UNC0638 treatment of 293T cells, DMSO/UNC0638 ratio of protein captured by 3×MBT; type: cell-based; conditions: for Relative to UNC0638 UNC Heavy: UNC0638 in heavy SILAC media; for Relative to UNC0638 UNC Light: UNC0638 in light SILAC media; for Relative to UNC0638 Average: average of UNC Light and UNC Heavy experiments; for Candidate G9a/GLP target: reduced association with 3xMBT after UNC0638 treatment;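 on all read-outs here: mass spectrometry (Q-Exactive) SILAC quantitation, DMSO/UNC0638 ratio computed after subtracting 3×MBTD355N mutant pull-down background, only proteins with at least twofold 3×MBT over mutant signal considered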
# T1 construct: endogenous in cells; host or cells: HEK 293T
# T1 sequence (Q96KQ7 2-1210 limits assumed): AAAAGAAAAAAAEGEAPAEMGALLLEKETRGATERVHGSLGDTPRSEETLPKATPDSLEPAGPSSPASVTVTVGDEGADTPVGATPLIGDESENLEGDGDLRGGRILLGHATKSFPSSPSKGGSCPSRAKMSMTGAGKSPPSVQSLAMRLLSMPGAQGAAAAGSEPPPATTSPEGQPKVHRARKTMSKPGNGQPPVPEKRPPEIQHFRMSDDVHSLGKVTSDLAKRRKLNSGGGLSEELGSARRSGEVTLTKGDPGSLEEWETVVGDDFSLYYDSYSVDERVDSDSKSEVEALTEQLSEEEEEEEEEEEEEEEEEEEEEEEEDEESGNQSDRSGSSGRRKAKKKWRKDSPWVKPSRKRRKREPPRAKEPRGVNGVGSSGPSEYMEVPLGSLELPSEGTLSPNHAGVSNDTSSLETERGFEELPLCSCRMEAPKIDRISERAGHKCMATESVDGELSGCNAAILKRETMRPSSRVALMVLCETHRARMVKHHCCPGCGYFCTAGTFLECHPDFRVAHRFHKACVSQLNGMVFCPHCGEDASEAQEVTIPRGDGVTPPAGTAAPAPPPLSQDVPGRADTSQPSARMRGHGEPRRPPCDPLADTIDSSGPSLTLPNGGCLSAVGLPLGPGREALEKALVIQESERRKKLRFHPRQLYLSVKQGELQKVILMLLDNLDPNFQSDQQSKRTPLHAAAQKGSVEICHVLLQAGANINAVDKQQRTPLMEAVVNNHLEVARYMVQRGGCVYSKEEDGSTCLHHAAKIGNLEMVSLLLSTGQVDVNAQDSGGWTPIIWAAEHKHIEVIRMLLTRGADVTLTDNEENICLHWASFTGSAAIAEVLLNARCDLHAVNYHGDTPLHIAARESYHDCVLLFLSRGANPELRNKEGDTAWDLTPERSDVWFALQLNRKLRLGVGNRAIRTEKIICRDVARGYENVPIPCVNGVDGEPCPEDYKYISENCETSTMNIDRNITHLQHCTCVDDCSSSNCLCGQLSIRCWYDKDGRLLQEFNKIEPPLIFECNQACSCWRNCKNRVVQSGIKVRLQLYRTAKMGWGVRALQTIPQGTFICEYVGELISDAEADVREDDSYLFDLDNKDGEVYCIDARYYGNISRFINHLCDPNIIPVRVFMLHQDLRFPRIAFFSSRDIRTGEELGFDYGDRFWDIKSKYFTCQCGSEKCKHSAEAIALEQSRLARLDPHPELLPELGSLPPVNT
# T1 sequence (Q9H9B1 2-1298 limits assumed): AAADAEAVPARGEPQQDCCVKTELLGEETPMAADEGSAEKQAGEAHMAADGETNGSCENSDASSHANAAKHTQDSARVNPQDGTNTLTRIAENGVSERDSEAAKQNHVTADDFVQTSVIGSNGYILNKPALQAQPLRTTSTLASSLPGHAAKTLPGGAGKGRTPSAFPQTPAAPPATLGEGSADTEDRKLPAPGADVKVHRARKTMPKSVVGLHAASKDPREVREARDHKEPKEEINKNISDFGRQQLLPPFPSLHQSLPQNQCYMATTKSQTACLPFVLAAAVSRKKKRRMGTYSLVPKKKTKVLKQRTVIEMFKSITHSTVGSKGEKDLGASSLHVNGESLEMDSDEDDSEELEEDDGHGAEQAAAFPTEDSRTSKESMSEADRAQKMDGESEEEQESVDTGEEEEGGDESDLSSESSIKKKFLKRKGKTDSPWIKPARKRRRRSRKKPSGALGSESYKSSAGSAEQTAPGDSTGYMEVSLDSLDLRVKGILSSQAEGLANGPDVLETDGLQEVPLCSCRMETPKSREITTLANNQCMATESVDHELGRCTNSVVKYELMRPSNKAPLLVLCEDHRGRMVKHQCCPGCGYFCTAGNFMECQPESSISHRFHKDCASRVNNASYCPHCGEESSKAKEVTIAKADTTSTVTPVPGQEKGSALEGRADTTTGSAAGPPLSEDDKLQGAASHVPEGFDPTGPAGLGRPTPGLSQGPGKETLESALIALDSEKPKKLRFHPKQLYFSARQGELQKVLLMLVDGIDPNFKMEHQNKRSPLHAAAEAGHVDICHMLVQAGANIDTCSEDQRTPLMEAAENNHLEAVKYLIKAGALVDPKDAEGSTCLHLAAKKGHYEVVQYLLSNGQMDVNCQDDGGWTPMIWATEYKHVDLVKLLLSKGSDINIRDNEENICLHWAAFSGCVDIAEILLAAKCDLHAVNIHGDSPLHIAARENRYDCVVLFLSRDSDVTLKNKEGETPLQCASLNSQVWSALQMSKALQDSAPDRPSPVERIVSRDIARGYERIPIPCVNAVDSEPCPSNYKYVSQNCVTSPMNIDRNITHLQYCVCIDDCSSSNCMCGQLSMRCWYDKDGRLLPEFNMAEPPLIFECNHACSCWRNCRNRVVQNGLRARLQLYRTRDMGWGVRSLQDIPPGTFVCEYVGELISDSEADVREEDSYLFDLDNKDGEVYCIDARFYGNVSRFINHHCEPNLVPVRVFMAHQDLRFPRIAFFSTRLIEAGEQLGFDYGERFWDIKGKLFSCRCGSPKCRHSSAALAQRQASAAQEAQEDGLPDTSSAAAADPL
# 3×MBT domain of L3MBTL1 = assay: Triple SILAC pull-down, 3xMBT/3xMBTD355N ratio (cytoplasmic, nuclear and chromatin fractions of 293T cells); type: binding, human; conditions: for 3xMBT/D355N UNC Heavy: experiment with UNC0638 in heavy SILAC media; for 3xMBT/D355N UNC Light: experiment with UNC0638 in light SILAC media;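 on all read-outs here: proteins quantified with MaxQuant, requiring at least two unique peptides and quantification in both label directions, normalized to the mean of proteins from a digested loading control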
# [1] = SILAC ratio DMSO/UNC0638 of protein pulled down with 3xMBT
# [2] = SILAC ratio, pull-down 3xMBT vs 3xMBTD355N
# [3] = SILAC ratio DMSO relative to UNC0638, pull-down with 3xMBT, all values in log base 2
# [4] = SILAC ratio 3xMBT vs 3xMBTD355N pull-down, 293T cells, all values in log base 2
Substance,Relative to UNC0638 UNC Heavy (G9a and GLP; [1]) [log base 2],Relative to UNC0638 UNC Light (G9a and GLP; [1]) [log base 2],Relative to UNC0638 Average (G9a and GLP) [log base 2],3xMBT/D355N UNC Heavy (3×MBT domain of L3MBTL1; [2]) [log base 2],3xMBT/D355N UNC Light (3×MBT domain of L3MBTL1; [2]) [log base 2],Relative to UNC0638 UNC Heavy (G9a and GLP; [3]) [log base 2],Relative to UNC0638 UNC Light (G9a and GLP; [3]) [log base 2],Relative to UNC0638 Average (G9a and GLP; all values in log base 2) [log base 2],3xMBT/D355N UNC Heavy (3×MBT domain of L3MBTL1; [4]) [log base 2],3xMBT/D355N UNC Light (3×MBT domain of L3MBTL1; [4]) [log base 2],Candidate G9a/GLP target (G9a and GLP)
PCBP1,0.11,0.19,0.15,2.16,2.49,–,–,–,–,–,–
PPP1CA,–,–,–,–,–,1.15,−1.83,−0.34,1.51,0.12,–
PRKDC,0.21,0.95,0.58,1.96,2.39,–,–,–,–,–,✓
PRPF8,0.11,0.17,0.14,2.51,2.50,–,–,–,–,–,–
PSIP1,0.17,0.15,0.16,2.72,2.92,–,–,–,–,–,–
PSME3,0.62,−0.01,0.31,1.70,1.89,–,–,–,–,–,–
PTBP1,0.33,0.25,0.29,2.61,3.23,–,–,–,–,–,–
RAD50,–,–,–,–,–,0.15,−0.14,0.01,2.20,2.08,–
RDBP,–,–,–,–,–,0.32,−0.12,0.10,2.37,2.82,–
RECQL,0.71,0.21,0.46,3.43,5.03,–,–,–,–,–,✓
RFC4,0.32,0.26,0.29,1.95,1.80,–,–,–,–,–,–
